From paper PMC12440816, “Cell cycle regulation has shaped replication origins in budding yeast” (Nature Structural & Molecular Biology, 2025)

What was measured:
Mcm3 = molecular target: T1, Mcm3 (Saccharomyces cerevisiae, UniProt P24279 1-971); assay: cryo-EM structure; SH and DH on nucleosome-flanked ARS1 (15 nM) loaded by Orc6-4A ORC (40 nM) pre-phosphorylated by CDK, Cdc6 (40 nM), MCM–Cdt1 (80 nM), 2.2 mM ATP, 30 °C, 30 min; details: both partners purified
T1 construct: Mcm3 of S. cerevisiae; Subunit of m5, for the subunit pairs of the SH structure; source: subunit of purified MCM–Cdt1 (previously described methods)
T1 sequence (P24279 whole entry): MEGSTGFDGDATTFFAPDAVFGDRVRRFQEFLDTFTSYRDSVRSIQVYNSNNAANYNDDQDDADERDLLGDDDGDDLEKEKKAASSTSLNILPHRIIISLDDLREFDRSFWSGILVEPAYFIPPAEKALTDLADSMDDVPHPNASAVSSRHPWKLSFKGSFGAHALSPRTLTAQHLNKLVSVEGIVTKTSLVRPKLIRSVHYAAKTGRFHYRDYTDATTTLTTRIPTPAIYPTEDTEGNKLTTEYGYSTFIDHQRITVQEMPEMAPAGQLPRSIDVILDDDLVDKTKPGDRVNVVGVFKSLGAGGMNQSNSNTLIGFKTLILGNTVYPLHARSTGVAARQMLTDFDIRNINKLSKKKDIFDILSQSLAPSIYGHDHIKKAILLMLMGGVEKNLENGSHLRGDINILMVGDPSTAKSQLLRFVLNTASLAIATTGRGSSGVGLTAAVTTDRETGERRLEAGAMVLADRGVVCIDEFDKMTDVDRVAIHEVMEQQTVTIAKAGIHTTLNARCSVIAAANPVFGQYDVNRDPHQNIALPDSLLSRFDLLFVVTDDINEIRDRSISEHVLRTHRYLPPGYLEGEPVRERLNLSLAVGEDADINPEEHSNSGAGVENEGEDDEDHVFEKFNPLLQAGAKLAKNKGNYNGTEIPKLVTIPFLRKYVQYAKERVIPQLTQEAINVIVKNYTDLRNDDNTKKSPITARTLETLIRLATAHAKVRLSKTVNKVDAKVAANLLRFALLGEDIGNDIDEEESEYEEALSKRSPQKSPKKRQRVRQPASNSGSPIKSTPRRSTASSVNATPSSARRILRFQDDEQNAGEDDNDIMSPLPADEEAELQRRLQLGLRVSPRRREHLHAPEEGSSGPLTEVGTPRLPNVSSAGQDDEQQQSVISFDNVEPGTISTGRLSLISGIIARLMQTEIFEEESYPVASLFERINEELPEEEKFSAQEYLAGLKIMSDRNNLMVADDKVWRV

Mcm4 = molecular target: T2, Mcm4 (Saccharomyces cerevisiae, UniProt P30665 1-933); assay: as above; details: both partners purified
T2 construct: Mcm4 of S. cerevisiae; Subunit of m5, for the subunit pairs of the SH structure; source: subunit of purified MCM–Cdt1 (previously described methods)
T2 sequence: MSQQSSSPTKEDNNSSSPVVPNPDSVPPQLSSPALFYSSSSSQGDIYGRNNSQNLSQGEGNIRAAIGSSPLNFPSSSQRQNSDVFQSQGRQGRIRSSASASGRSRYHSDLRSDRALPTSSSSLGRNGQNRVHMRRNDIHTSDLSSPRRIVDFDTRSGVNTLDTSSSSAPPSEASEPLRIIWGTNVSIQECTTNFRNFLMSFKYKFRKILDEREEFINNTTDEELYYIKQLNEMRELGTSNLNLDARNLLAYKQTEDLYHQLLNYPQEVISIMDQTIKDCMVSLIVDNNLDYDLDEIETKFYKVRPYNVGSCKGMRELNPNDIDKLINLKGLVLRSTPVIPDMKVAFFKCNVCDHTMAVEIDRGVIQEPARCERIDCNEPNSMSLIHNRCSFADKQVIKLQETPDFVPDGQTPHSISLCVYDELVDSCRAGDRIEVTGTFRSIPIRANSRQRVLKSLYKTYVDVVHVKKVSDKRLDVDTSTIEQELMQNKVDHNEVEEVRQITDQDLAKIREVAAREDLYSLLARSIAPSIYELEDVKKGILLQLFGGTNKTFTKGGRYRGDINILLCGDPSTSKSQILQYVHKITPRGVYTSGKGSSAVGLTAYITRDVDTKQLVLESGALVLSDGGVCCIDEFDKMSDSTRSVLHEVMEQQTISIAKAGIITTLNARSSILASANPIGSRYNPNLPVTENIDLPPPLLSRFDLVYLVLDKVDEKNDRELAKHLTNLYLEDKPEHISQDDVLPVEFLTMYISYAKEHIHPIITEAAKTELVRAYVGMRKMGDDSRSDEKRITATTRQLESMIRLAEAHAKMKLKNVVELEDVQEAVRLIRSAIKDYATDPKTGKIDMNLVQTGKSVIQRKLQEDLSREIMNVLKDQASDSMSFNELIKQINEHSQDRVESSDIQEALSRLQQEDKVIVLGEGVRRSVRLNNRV

B1: Mcm7 (natural protein, Saccharomyces cerevisiae)
chain: MSAALPSIQLPVDYNNLFNEITDFLVTFKQDTLSSDATRNENEDENLDAENIEQHLLEKGPKYMAMLQKVANRELNSVIIDLDDILQYQNEKFLQGTQADDLVSAIQQNANHFTELFCRAIDNNMPLPTKEIDYKDDVLDVILNQRRLRNERMLSDRTNEIRSENLMDTTMDPPSSMNDALREVVEDETELFPPNLTRRYFLYFKPLSQNCARRYRKKAISSKPLSVRQIKGDFLGQLITVRGIITRVSDVKPAVEVIAYTCDQCGYEVFQEVNSRTFTPLSECTSEECSQNQTKGQLFMSTRASKFSAFQECKIQELSQQVPVGHIPRSLNIHVNGTLVRSLSPGDIVDVTGIFLPAPYTGFKALKAGLLTETYLEAQFVRQHKKKFASFSLTSDVEERVMELITSGDVYNRLAKSIAPEIYGNLDVKKALLLLLVGGVDKRVGDGMKIRGDINVCLMGDPGVAKSQLLKAICKISPRGVYTTGKGSSGVGLTAAVMKDPVTDEMILEGGALVLADNGICCIDEFDKMDESDRTAIHEVMEQQTISISKAGINTTLNARTSILAAANPLYGRYNPRLSPLDNINLPAALLSRFDILFLMLDIPSRDDDEKLAEHVTYVHMHNKQPDLDFTPVEPSKMREYIAYAKTKRPVMSEAVNDYVVQAYIRLRQDSKREMDSKFSFGQATPRTLLGIIRLSQALAKLRLADMVDIDDVEEALRLVRVSKESLYQETNKSKEDESPTTKIFTIIKKMLQETGKNTLSYENIVKTVRLRGFTMLQLSNCIQEYSYLNVWHLINEGNTLKFVDDGTMDTDQEDSLVSTPKLAPQTTASANVSAQDSDIDLQDA
notes: Mcm7 of S. cerevisiae; Subunit of m5, for the subunit pairs of the SH structure; source: subunit of purified MCM–Cdt1 (previously described methods)
B1: binds (Mcm3); binds (Mcm4).
